In the supplement of paper PMC9170038:

Test system: MS2 coat protein
Test: apparent KD of MS2 coat protein; designed switch direction (-1 OFF switch, 1 ON switch): 1; higher = weaker reporter binding
How it was run: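 The buffer was Tris-HCl pH 7.5 with KCl, MgCl2, BSA, DTT, tRNA and Tween-20. In it, SNAP-549-labelled MS2 coat protein was titrated in doubling steps from 0.7 or 1.5 nM to 3 µM over chip-bound RNA switches transcribed by stalled E. coli RNA polymerase on Illumina chips. Apparent KD is the per-design median over clusters of curve fits to normalised fluorescence.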

[1] = input ligand: microRNA oligo, concentration not stated
[2] = Eterna round: R95, input ligand: FMN 200 uM
[3] = Eterna round: R95, input ligand: microRNA oligo, concentration not stated
[4] = Eterna round: R95, input ligand: none

Row | Sequence | apparent KD of MS2 coat protein (input ligand: FMN 200 uM) | apparent KD of MS2 coat protein [1] | apparent KD of MS2 coat protein (input ligand: none) | apparent KD of MS2 coat protein [2] | apparent KD of MS2 coat protein [3] | apparent KD of MS2 coat protein [4]
1 | AGAUCAUGACGAGGAUAUGGUACAUGAGGAUCACCCAUGUAUGUACUAUAAUUCGAAUGAGGAAUCCAGAAGGCGUCGUGGUCA [JL SSNG2 1.15] (Eterna round: R96, puzzle: Same State NG 2) | 15.3 nM | 29.6 nM | 55.4 nM | – | – | –
2 | AAUAAACAUGAGGAUCACCCAUGUAAUAUAAAUGGAGGAUAUGCAAUUAUUAAUUAUUAAGUAGAAGGUCGAAUAA [Lollin - Epsilon 1] (puzzle: Same State 1) | – | – | – | 62.1 nM | 55.7 nM | 91.2 nM
3 | GGAGCCGGCCUAGGAUAUUUCAUAAGAAAACAUGAGGAUCACCCAUGUAGGCCAGAAGGCCUUGGGAAGAAGGAGGUCGGCUCC [Loop Effect - G26] (Eterna round: R96, puzzle: Same State NG 2) | 11.2 nM | 19.7 nM | 35.1 nM | – | – | –
4 | CACAAUCUAUCUGAGGAUAUCAUGAAAAAAACAUGAGGAUCACCCAUGUGCAGGAAAACUGCAUAUGAGAAGGCAGAUAGAUUGA [salish99_SS2_r3_016] (puzzle: Same State 2) | – | – | – | 38 nM | 1260 nM | 678 nM
5 | UGUUGUAUUACAGGAUAUCUAUUAUUUUUAUAUAGAGAAGGGUAUUCACAUGAGGAUCACCCAUGUAUAUACGAGGAAGUUGUG [JMF's solution 28] (Eterna round: R96, puzzle: Same State NG 1) | – | 29.6 nM | – | – | – | –
6 | CGACACACGGCAGGAUAUGCUUAGCAAAGCUAAGCAGAAGGGCCUCAUGUCGUGGAAACGUGACAUGAGGAUCACCCAUGUCGC [Omei SS(NG)1 C] (Eterna round: R96, puzzle: Same State NG 1) | 31 nM | 14.6 nM | 19.9 nM | – | – | –
7 | UGUUGUAUUACAGGAUAUCUAGUAUUUUGAUUUAGAGAAGGGUAUUCACAUGAGGAUCACCCAUGUAUAUACGAGGAAGUUGUG [JMF's solution 44] (Eterna round: R96, puzzle: Same State NG 1) | – | 44 nM | – | – | – | –
8 | AACGUUGGCGAGCAGGAUAUCCGCUCAUUAACAUGAGGAUCACCCAUGUUCUGCAAGAUGUGCUAGGAGAAGGGCUGGUCGACAU [Edatar] (puzzle: Same State 2) | – | – | – | 14.9 nM | 18.2 nM | 34.8 nM
9 | UUGAAGAAUAUAGGAUAUUGAAUACAUAUGUUUAACAUGAGGAUCACCCAUGUGGGUUGCGGUAUCGAGAAGGAUAAAUAAUAG [Mat - Same State NG 2 - JL mod - D13] (Eterna round: R96, puzzle: Same State NG 2) | 196 nM | 122 nM | 190 nM | – | – | –
10 | CUCAAACAUGAGGAUCACCCAUGUGUUGUCAUGGGAGGAUAUCCCAGUUCGUUGUCGUCGGGAGAAGGCCUAUGUC [× ×•×ª×• ×ž×“×™× ×” × ×—×ª-14] (puzzle: Same State 1) | – | – | – | – | 55.9 nM | –
11 | AUAAGUCCGAUGCUCGUCUCUCCGUACAAACAUGAGGAUCACCCAUGUGAUCGGGAAGUAGCCCGAUCAGUAUGGCC [Erardius] (puzzle: Sensor for hsa-mir-208a) | – | – | – | 45.5 nM | 22.6 nM | 48.3 nM
12 | GCUCGAUGAGCUGUCUACAUGAGGAUCACCCAUGUAGAUGGGCAGGAUAUUUACGUGCUUUGUGUAGAGAAGGGCCCAUCGAGC [SameState NG3 #77] (Eterna round: R96, puzzle: Same State NG 3) | 35 nM | 144 nM | 267 nM | – | – | –
13 | AUAAUACAUGAGGAUCACCCAUGUAAUUUAACUUGUAAGAUCAAGGAUAUCAGCUCGUUUAGAGCUGAGAAGGUGAUCACAUGU [SSNG3/20-A3] (Eterna round: R96, puzzle: Same State NG 3) | – | 60.2 nM | – | – | – | –
14 | AAUUAUUAACAUGAGGAUCACCCAUGUAUAAGGGAGAAUAUUAUUAUUAUUAUUAACAAGCUUUUUGCUUGUCUCAU [Ribo-boogie] (puzzle: Sensor for hsa-mir-208a version 2) | – | – | – | 48.6 nM | 67.9 nM | 68.4 nM
15 | AGUCCAGCCUAAGCUGGACAAAAGCAUGUACAUGAGGAUCACCCAUGUUCAUGUACAAGCUUUUUGCAAGUCAAAAU [Mat - hsa-mir-208a - Mod of JL - 79] (puzzle: Sensor for hsa-mir-208a) | – | – | – | 1050 nM | 19.3 nM | 1050 nM
16 | GUUACAUGAGGAUCACCCAUGUAUGUGUGGGAGUAAGUGUCUUAGGAUAUCUAGUAUUUAAGUUAAGAGAAGGAAGAUUGUUGU [JMF's solution 62] (Eterna round: R96, puzzle: Same State NG 3) | 129 nM | 78 nM | 114 nM | – | – | –
17 | GAGGAUGAUUUACAGGAUAUAUAGAAGAUGACAUGAGGAUCACCCAUGUAAGAGAAAGGAGGGAGAUAGAAGGGUAAGGGAUGUG [JR_SS2_Sub40] (puzzle: Same State 2) | – | – | – | 37.2 nM | 24.5 nM | 42.3 nM
18 | CUGAGCAAUCAAGGAUAUCACGUCGAUUAGACGUGAGAAGGUGAUCAUAACAUGAGGAUCACCCAUGUAUUACAUGGAGCUCAG [Brourd's SSNG1/1-A2 mod 1] (Eterna round: R96, puzzle: Same State NG 1) | 533 nM | 124 nM | 397 nM | – | – | –
19 | AUCCUACAUGAGGAUCACCCAUGUGACGCCUCGAUAGGAUAUGCGUGUGCCUUGGCGCAUGCAGAAGGAUUGUAGC [JL Aveso mod 6] (puzzle: Same State 1) | – | – | – | – | 30.5 nM | –
20 | AGUCCAGCCUGAGCUGGACAAAGGCAUGUACAUGAGGAUCACCCAUGUCAUGUACAAGCUUUUUGCUCGUCUUAAUA [Zipper 49 - 1] (puzzle: Sensor for hsa-mir-208a) | – | – | – | 177 nM | 15 nM | 220 nM
21 | GUAGCAUACCGAGGAUAUUCAUAUUAACAUGAGGAUCACCCAUGUAUUUAGGCCAAAAGGCCUUGGGAGAAGGCGGAAUGCUAC [Xeonanis - 20 Mod7] (Eterna round: R96, puzzle: Same State NG 2) | 17.5 nM | 22.3 nM | 29.4 nM | – | – | –
22 | CGAGAGUGCGUAGGAUAUCCGAAAGGAAGUGUAGGAGAAGGGCGGAACGCUCAUCGAAAACAUGAGGAUCACCCAUGUACAAAU [PowerStrip SSNG 1.17] (Eterna round: R96, puzzle: Same State NG 1) | 24.7 nM | 62.7 nM | 43.9 nM | – | – | –
